Data: patent US20200399341A1 (Hoffmann-La Roche, published 2020)

Target: T1, Recombinant human VEGF R2 (R&D Systems, #357-KD) (human, UniProt P35968 20-764)
T1 construct: Immobilized by amine coupling on a CM5 chip (approx. 9,500 RU)
Assay: SPR (BIAcore T200): VEGF-A-121 (10 nM, pre-incubated with COMP-anti-VEGF-Fab) injected over amine-coupled VEGF R2
Protocol: Binding was investigated by surface plasmon resonance using a BIAcore T200 instrument (GE Healthcare). All experiments were performed at 25° C. using HBS-P (10 mM HEPES, 140 mM NaCl, 0.05% PS20, pH 7.4) as running and dilution buffer. Recombinant human VEGF R2 (R&D Systems, #357-KD) was immobilized on a Series S CM5 Sensor Chip (GE Healthcare) using standard amine coupling chemistry resulting a surface density of approx. 9,500 RU. […] Subsequently the surface was regenerated by injecting 10 mM Glycine solution (pH 2.0) for 60 sec., followed by 5 mM NaOH for 60 sec. at a flow rate of 5 μl/min. Bulk refractive index differences were corrected by subtracting the response obtained from a mock surface. Blank injections were subtracted (double referencing). The derived binding signals (resonance units RU) were plotted against the antibody concentrations to calculate IC₅₀ values.

T1 sequence (P35968 20-764 limits assumed): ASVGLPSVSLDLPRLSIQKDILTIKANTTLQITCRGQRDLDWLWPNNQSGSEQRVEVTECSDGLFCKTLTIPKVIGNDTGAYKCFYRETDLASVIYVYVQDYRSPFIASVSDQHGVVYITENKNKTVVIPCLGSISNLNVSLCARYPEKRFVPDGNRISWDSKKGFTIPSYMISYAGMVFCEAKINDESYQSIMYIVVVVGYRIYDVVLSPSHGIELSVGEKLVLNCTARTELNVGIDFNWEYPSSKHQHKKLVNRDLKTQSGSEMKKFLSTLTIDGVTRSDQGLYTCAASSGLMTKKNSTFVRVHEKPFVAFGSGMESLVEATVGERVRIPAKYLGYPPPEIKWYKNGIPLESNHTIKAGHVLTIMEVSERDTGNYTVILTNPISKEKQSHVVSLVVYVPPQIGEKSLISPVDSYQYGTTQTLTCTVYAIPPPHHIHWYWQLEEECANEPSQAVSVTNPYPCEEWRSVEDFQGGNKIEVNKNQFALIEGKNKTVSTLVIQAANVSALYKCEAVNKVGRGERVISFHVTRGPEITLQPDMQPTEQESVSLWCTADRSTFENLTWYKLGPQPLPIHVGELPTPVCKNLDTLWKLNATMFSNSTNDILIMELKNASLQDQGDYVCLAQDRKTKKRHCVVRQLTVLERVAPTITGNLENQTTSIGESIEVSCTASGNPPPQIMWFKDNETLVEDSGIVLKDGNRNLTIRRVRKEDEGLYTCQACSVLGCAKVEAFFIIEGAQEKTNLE

binding result: binds
B1: VEGF-A-121 (ligand, UniProt P15692-9 27-147, looked up)
chain: APMAEGGGQNHHEVVKFMDVYQRSYCHPIETLVDIFQEYPDEIEYIFKPSCVPLMRCGGCCNDEGLECVPTEESNITMQIMRIKPHQGQHIGEMSFLQHNKCECRPKKDRARQEKCDKPRR
notes: Used at 10 nM in solution, pre-incubated with the antibody molecules
